Assay results: patent publication US20170283458A1, “COLLAGEN-BINDING SYNTHETIC PEPTIDOGLYCANS FOR WOUND HEALING” (Symic Biomedical, Inc., priority 2009, published 2017)
Ends that are not written are not given here.

Experiments:
Human dermal fibroblasts = assay: TGF-β1 production by human dermal fibroblasts (ELISA); assay type: cell-based; conditions: 1.4 μM treatment, 48 hours
Experimental: Human dermal fibroblasts (Cascade Biologics) were seeded onto 96-well tissue culture polystyrene plates at a seeding density of 1.83×10^3 cells/well. Cells adhered overnight and cell medium was aspirated. 100 μL/well of cell medium containing a final concentration of 1.4 μM treatment delivered from a concentrated solution of treatment in 1×PBS was added to the cells. After 48 hours, cell medium was removed and frozen at −80 C until further testing. TGF-β1 was measured by ELISA using a kit and protocol from R&D Systems.

collagen gels = target: T1, collagen gels (Bos taurus, UniProt P02453+P02465); assay: Cryo-SEM measurement of fibril density; assay type: biochemical; conditions: 10:1 molar ratio, cryo-SEM 10,000×
T1 construct: purchased Inamed, Freemont, Calif; Nutragen
Experimental: Collagen gels were formed in the presence of each additive at a 10:1 molar ratio, as described in EXAMPLE 16, directly on the SEM stage, processed, and imaged as described. Images at 10,000× were analyzed for fibril density calculations. Images were converted to 8-bit black and white, and threshold values for each image were determined using ImageJ software (NIH). The threshold was defined as the value where all visible fibrils are white, and all void space is black. The ratio of white to black area was calculated using MatLab software. All measurements were taken in triplicate and thresholds were determined by an observer blinded to the treatment.

Long-Evans rats [1] = assay: Rat incisional model, trichrome histological scoring of scar tissue (Beausang); assay type: in vivo; conditions: 21-days post-injury; 0.125 mg and 0.625 mg; vs untreated wounds
Experimental: (§1) Using sterile techniques, longitudinal wounds were incised on shaved dorsal skin of the rats. A 4 cm incision was cut through the panniculus down to the skeletal musculature, and a 250 μL single dose of either 10 mg/mL hyaluronic acid (HA) or HA+DS-SILY was applied to the open wound by a syringe. DS-SILY was tested at 0.5, 1, and 2.5 mg/mL mixed with HA. The incision was then sutured closed and animals were returned to individual cages and monitored for complications. Negative control rats received no treatment and were treated identically. A pilot study was performed (n=3) at time points 3, 7, 10, 14, and 21 days, followed by a higher powered study (n=9) for 21 and 28 day time points. […]
(§2) H&E stained samples were examined for inflammation by a board certified pathologies blinded to the treatments following a scale adapted from Simhon et al. Trichrome stained samples were evaluated for scar tissue formation by an observer blinded to the treatments using a method established by Beausang et al. in which collagen orientation, density, and maturation are observed and compared to collagen of healthy tissue. A total of 12 tissue samples were analyzed for each study at each time point. Statistics were analyzed by ANOVA using Design Expert software (StatEase, Minneapolis, Minn.). […]

Long-Evans rats [2] = assay: Rat incisional model, H&E histological scoring for inflammation; assay type: in vivo; conditions: low and high doses, all time points
Experimental: as §1, §2

collagen = target: T2, collagen (Bos taurus, UniProt P02453+P02465); assay: Fibrillogenesis turbidity assay (absorbance at 313 nm); assay type: biochemical; conditions: 4 mg/mL collagen, 10:1 collagen:treatment unless otherwise indicated
T2 construct: purchased Inamed, Freemont, Calif; Nutragen
Experimental: Gels were made with Nutragen collagen (Inamed, Freemont, Calif.) at a final concentration of 4 mg/mL collagen. Nutragen stock is 6.4 mg/mL in 10 mM HCl. Gel preparation was performed on ice, and fresh samples were made before each test. The collagen solution was adjusted to physiologic pH and salt concentration, by adding appropriate volumes of 10×PBS (phosphate buffered saline), 1×PBS, and 1M NaOH. For most experiments, samples of DS, decorin, DS-SILY, or DS-Dc13 were added at a 10:1 collagen:treatment molar ratio by a final 1×PBS addition (equal volumes across treatments) in which the test samples were dissolved at appropriate concentrations. In this way, samples are constantly kept at pH 7.4 and physiologic salt concentration. Collagen-alone samples received a 1×PBS addition with no sample dissolved. Fibrillogenesis will be induced by incubating neutralized collagen solutions at 37° C. overnight in a humidified chamber to avoid dehydration. Gel solutions with collagen:treatment molar ratios of other than 10:1 were prepared similarly.
Collagen fibrillogenesis was monitored by measuring turbidity related absorbance at 313 nm providing information on rate of fibrillogenesis and fibril diameter. Gel solutions were prepared as described in EXAMPLE 16 (4 mg/mL collagen, 10:1 collagen:treatment, unless otherwise indicated) and 50 uL/well were added at 4° C. to a 384-well plate. The plate was kept at 4° C. for 4 hours before initiating fibril formation. A SpectraMax M5 at 37° C. was used to measure absorbance at 313 nm at 30 s intervals for 6 hours.
A fibrillogenesis assay as described for DS-SILY, EXAMPLE 19, performed with the conjugate DS-Dc13.

T2 sequence (P02453 162-1217 limits assumed): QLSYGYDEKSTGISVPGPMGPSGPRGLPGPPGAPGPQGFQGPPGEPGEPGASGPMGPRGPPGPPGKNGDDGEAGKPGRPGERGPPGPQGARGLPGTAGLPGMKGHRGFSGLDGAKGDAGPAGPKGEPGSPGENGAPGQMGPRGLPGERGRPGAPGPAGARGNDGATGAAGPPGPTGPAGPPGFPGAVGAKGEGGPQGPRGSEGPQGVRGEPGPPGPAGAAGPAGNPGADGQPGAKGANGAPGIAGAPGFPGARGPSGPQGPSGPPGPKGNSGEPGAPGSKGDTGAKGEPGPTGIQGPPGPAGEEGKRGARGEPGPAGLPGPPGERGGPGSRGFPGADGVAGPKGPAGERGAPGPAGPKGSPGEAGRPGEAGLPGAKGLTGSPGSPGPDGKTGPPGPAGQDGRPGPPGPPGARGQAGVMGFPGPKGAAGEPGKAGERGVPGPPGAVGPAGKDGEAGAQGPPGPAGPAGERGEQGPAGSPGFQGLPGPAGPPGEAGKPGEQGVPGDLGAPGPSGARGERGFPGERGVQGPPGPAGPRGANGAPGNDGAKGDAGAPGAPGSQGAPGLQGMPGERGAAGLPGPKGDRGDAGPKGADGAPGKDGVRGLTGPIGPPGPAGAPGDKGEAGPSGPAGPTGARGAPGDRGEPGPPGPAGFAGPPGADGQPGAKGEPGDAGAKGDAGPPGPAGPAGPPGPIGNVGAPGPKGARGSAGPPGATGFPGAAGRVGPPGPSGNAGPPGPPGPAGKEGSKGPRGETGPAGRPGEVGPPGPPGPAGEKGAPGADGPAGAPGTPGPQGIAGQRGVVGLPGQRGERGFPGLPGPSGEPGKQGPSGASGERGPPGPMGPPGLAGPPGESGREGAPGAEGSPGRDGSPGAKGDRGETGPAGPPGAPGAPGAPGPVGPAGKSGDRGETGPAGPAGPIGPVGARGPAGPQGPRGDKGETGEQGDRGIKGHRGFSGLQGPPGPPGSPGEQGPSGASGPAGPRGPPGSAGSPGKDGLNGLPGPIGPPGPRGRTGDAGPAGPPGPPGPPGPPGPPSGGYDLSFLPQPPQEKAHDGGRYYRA
T2 sequence (P02465 80-1117 limits assumed): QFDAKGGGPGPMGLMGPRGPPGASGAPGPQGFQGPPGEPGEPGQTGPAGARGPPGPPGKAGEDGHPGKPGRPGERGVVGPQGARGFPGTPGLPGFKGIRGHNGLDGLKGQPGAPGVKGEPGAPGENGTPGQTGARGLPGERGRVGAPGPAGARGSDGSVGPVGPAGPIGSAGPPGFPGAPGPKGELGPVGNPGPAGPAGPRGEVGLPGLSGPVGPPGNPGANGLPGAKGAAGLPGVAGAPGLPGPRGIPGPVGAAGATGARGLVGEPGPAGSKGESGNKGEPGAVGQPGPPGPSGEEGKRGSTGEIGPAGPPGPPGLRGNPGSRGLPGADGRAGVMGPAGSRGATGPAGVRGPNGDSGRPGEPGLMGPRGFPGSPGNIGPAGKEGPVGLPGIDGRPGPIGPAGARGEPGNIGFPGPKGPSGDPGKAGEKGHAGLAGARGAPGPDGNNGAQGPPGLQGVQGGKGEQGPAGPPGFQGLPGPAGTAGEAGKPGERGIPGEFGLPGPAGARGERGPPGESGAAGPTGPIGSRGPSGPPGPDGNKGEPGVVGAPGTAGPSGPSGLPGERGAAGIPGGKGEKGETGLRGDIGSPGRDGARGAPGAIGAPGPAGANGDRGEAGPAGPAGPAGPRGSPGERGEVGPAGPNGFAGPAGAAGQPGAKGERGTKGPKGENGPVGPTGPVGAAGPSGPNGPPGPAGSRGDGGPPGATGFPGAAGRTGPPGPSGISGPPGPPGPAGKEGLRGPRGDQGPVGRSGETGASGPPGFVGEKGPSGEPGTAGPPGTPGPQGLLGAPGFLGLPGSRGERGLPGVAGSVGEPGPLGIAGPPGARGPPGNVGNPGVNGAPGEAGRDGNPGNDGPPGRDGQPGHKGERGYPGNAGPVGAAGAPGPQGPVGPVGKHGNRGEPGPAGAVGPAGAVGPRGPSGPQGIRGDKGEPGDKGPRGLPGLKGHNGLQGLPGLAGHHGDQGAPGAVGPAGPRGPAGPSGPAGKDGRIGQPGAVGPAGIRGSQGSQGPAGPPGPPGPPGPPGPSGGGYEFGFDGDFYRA
T1 sequence (P02453 162-1217 limits assumed): as the sequence (P02453 162-1217 limits assumed) above
T1 sequence (P02465 80-1117 limits assumed): as the sequence (P02465 80-1117 limits assumed) above

Substance: DS-SILY: collagen-binding peptidoglycan in which a single SILY peptide was conjugated to dermatan sulfate via PDPH (RRANAALKAGELYKSILYGC; also: single peptide conjugated to dermatan sulfate via PDPH, site not given here)
- TGF-β1 in cell medium (Human dermal fibroblasts): significantly decreased TGF-β1
- fibril density (ratio of fibril containing area to void space) (collagen gels): significantly greater fibril density
- histological score for collagen maturity and organization (scar tissue) (Long-Evans rats [1]): significantly lower scores
- inflammatory response (histological scoring) (Long-Evans rats [2]): does not cause an adverse immune response
- inflammatory response (histological scoring) (Long-Evans rats [2]; listed as peptidoglycan): did not have any adverse inflammatory effect
- rate of fibrillogenesis (collagen): decrease the rate of fibrillogenesis
